Reference: patent US20210371530A1 (Merck Sharp & Dohme, published 2021)
Numbering of substitutions follows the chain as printed. Names and notes keep the numbering of the source.

B1: Anti-PD-1/LAG-3 bispecific antibody 18ASS (bispecific antibody, human IgG1, kappa, L234A L235A)
heavy 1: not shown
light 1: DIVMTQTPLSLSVTPGQPASISCRASKSVSTSGFSYLHWYLQKPGQPPQLLIFLSKYRSSGVPDRFSGSGSGTDFTLKISRVEAEDVGVYYCSQAYHLPLTFGQGTKLEIKRTVAAPSVFIFPPSDERLKSGTASVVCLLNNFYPREAKVQWKVDNALQSGNSQESVTEQDSKDSTYSLSSRLTLSKADYEKHKVYACEVTHQGLSSPVTKSFNRGEC
heavy 2: QMQLVQSGPEVKKPGTSVKVSCKASGYTFTDYNVDWVRQARGQRLEWIGDINPNDGGTIYAQKFQERVTITVDKSTSTAYMELSSLRSEDTAVYYCARNYRWFGAMDHWGQGTTVTVSSASTKGPSVFPLAPSSKSTSGGTAALGCLVKDYFPEPVTVSWNSGALTSGVHTFPAVLQSSGLYKLSSVVTVPSSSLGTQTYICNVNHKPSNTKVDKKVEPKSCDKTHTCPPCPAPEAAGGPSVFLFPPKPKDTLMISRTPEVTCVVVSVSHEDPEVKFNWYVDGVEVHNAKTKPREEQYNSTYRVVSVLTVLHQDWLNGKEYKCKVSNKALPAPIEKTISKAKGQPREPQVYVLPPSRDELTKNQVSLLCLVKGFYPSDIAVEWESNGQPENNYLTWPPVLDSDGSFFLYSKLTVDKSRWQQGNVFSCSVMHEALHNHYTQKSLSLSPG
light 2: DIVMTQTPLSLSVTPGQPASISCKASQSLDYEGDSDMNWYLQKPGQPPQLLIYGASNLESGVPDRFSGSGSGTDFTLKISRVEAEDVGVYYCQQSTEDPRTFGGGTKVEIKRTVAAPSVFIFPPSDEELKSGTATVVCLLNNFYPREAKVQWKVDNALQSGNSQESVTEQDSKDSTYSLSSYLELSKADYEKHKVYACEVTHQGLSSPVTKSFNRGEC
B2: Anti-PD-1/LAG3 bispecific antibody 33ARK (bispecific antibody, human IgG1, kappa, L234A L235A)
heavy 1: EVQLVQSGAEVKKPGASVKVSCKASGYTFTSYYLYWVREAPGQGLEWIGGVNPSNGGTNFNEKFKSRVTLTVDTSISTAYMELSRLRSDDTAVYYCTRRDSNYDGGFDYWGQGTTVTVSSASTKGPSVFPLAPSSKSTSGGTAALGCEVTDYFPEPVTVSWNSGALTSGVHTFPAVLESSGLYSLSSVVTVPSSSLGTQTYICNVNHKPSNTKVDKKVEPKSCDKTHTCPPCPAPEAAGGPSVFLFPPKPKDTLMISRTPEVTCVVVSVSHEDPEVKFNWYVDGVEVHNAKTKPREEQYNSTYRVVSVLTVLHQDWLNGKEYKCKVSNKALPAPIEKTISKAKGQPREPQVYVLPPSRDELTKNQVSLLCLVKGFYPSDIAVEWESNGQPENNYLTWPPVLDSDGSFFLYSKLTVDKSRWQQGNVFSCSVMHEALHNHYTQKSLSLSPG
light 1: DIVMTQTPLSLSVTPGQPASISCRASKSVSTSGFSYLHWYLRKPGQPPQLLIFLASNLESGVPDRFSGSGSGTDFTLKISRVEAEDVGVYYCQHSWELPLTFGQGTKLEIKRTVAAPSVFIFPPSDERLKSGTASVVCLLNNFYPREAKVQWKVDNALQSGNSKESVTEQDSKDSTYSLSSRLTLSKADYEKHKVYACEVTHQGLSSPVTKSFNRGEC
heavy 2: not shown
light 2: B1 light 2 with Q42E, T135S, Q164E, Y182T
B3: Fab 00APE (humanized 08A Fab with S61N correction) (Fab, V domains shown)
VH: EVQLVQSGAEVKKPGASVKVSCKASGYTFTSYYLYWVRQAPGQGLEWIGGVNPSNGGTNFNEKFKSRVTLTVDTSISTAYMELSRLRSDDTAVYYCTRRDSNYDGGFDYWGQGTTVTVSS
VL: DIVMTQTPLSLSVTPGQPASISCRASKSVSTSGFSYLHWYLQKPGQPPQLLIFLASNLESGVPDRFSGSGSGTDFTLKISRVEAEDVGVYYCQHSWELPLTFGQGTKLEIKR

biological target: human PD-1 on cells (human, UniProt Q15116 25-288); assay: cell-based or functional assay
Sequence (Q15116 25-288): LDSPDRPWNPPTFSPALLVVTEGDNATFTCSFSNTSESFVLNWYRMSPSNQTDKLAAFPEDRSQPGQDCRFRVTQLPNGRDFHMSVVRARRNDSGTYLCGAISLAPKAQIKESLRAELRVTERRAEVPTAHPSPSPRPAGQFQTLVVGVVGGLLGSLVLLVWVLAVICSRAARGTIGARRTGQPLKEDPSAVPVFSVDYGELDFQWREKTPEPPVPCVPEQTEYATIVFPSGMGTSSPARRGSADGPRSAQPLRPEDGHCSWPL

AVG EC50 (nM), IL-2 luciferase reporter, Jurkat.hPD-1.IL2luc + THP-1.PD-L1 assay [nM] | Binder
0.55 | B1
3.12 | B2
3.32 | B3
